Legend:
[1] = target: T1, active recombinant human FAP (Homo sapiens, UniProt Q12884); test: DQ-gelatin cleavage inhibition, active recombinant human FAP; format: biochemical
T1 construct: purchased Sino Biologicals 10464-H07H
T1 sequence (Q12884 26-760 limits assumed): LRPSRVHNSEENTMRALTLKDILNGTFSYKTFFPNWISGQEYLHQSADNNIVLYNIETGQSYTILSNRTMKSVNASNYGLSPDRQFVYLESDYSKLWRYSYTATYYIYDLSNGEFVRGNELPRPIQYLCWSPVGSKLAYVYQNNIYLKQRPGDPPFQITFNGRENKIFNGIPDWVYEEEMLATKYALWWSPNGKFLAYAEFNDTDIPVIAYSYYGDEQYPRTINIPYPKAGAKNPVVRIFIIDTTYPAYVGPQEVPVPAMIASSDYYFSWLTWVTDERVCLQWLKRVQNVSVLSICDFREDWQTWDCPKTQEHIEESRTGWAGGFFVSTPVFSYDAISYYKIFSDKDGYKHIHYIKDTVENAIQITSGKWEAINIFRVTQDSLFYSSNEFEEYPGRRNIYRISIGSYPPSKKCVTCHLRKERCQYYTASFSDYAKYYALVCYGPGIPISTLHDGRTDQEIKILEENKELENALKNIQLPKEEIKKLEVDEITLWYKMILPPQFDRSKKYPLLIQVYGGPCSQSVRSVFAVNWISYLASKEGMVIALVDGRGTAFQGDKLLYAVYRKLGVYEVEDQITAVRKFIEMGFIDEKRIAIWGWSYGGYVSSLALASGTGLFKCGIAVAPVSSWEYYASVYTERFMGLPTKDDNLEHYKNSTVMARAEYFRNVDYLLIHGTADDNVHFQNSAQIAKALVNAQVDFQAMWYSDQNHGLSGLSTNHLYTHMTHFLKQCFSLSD
Description: A black flat bottom standard 96-well ELISA plate was blocked for 1 hour at 37° C. using sterile blocking buffer: 5% bovine serum albumin (BSA) in phosphate buffered saline (PBS). The blocking buffer was removed and replaced with: 40 μL of fresh blocking buffer, 40 μL of antibody in PBS, 10 μL of 20 nM active recombinant human FAP (Sino Biologicals, 10464-H07H) in PBS, and 10 μL of DQ-Gelatin (Molecular Probes, D-12054) in PBS. Fluorescence intensity was measured at 485 nm excitation and 530 nm emission every 3 min over a total time of 45 min, while gently shaking the plate for twenty seconds before every measurement. To calculate the fractional activity, the steady state velocity (Δ 530 nm emission/Δ time) […].
To determine the inhibitory ability of NI-206.82C2 against active recombinant human FAP (Sino Biologicals, 10464-H07H) a black 96 well ELISA plate was blocked for 1 h at 37° C. with sterile 5% BSA in PBS. After removing the blocking solution, 40 uL of 12.5% BSA in PBS was added to each well. Then FAP-targeting agents (NI-206.82C2, F19, and Val-Boro-Pro (PT-100; Point therapeutics)) were added to the appropriate wells for a final concentration of 500, 10, 3.03, 1.01, 0.031, 0.001, and 0 nM. 10 uL of active recombinant human FAP was then added to all the wells for a final assay concentration of 20 nM. […]

[2] = test system: human breast cancer tissue sections; test: immunohistochemistry on human breast cancer tissue sections; details: chimeric form with murine constant domain, 10 μg/mL, DAB
Description: Human breast cancer tissue sections were allowed to dry for 10 min at room temperature, and then fixed for 15 minutes in 4% paraformaldahyde, followed by washing three times 5 minutes in PBS. Slides were then incubated for 5 min in 0.3% H2O2 in PBS to block endogenous peroxidase activity, and subsequently washed 3 times 5 min in PBS. Endogenous biotin was then blocked using the Biotin-Blocking System (DAKO X0590), followed by times washing with PBS. Blocking of unspecific antibody binding and permeabilization of the tissue section was performed using blocking buffer (5% goat serum, 5% horse serum, 0.3M glycine, 5% BSA, and 0.5% Triton X100 in PBS). Tissue sections were then stained with a recombinantly engineered chimeric form of NI-206.82C2 with a murine constant domain and the human variable domain of the original antibody and a matched isotype control (43A11) at 10 μg/mL in permeabilization buffer overnight at 4° C. Following three PBS washing steps, the sections were incubated with a biotinylated goat anti-mouse antibody for 1 h at room temperature. For amplifying the target antigen the VECTASTAIN ABC kit (Vector Labs) was used, followed by development with 3,3′-diaminobenzidine (DAB) and counterstained with Mayer's haematoxylin blue. […]

potency for inhibiting active recombinant human FAP compared to Val-boro-Pro and F19 [1]: higher potency
B1: NI-206.82C2: human-derived recombinant anti-FAP antibody; VH SEQ ID NO: 2 or 4 (PIMC), VL SEQ ID NO: 6 (antibody, V domains shown)
VH: QVQLQQSGPGLVKPSQTLSLTCAISGDSVSSNSVTWNWIRQSPSRGLEWLGRTYYRSKWYNDYAVSVKGRITINPDTSKNQFYLQLKSVTPEDAAVYYCARDSSILYGDYWGQGTLVTVSS
VL: QAVLTQPSSLSASPGASASLTCTLPSGINVGTYRIFWFQQKPGSPPQYLLSYKSDSDNHQGSGVPSRFSGSKDASANAGILLISGLQSEDEADYYCMIWHSSAWVFGGGTKLTVL
staining of human ductal carcinoma in-situ tissue [2]: Positive staining | staining of human invasive ductal carcinoma tissue [2]: Positive staining

Source: patent US20180022822A1, “NOVEL ANTI-FIBROBLAST ACTIVATION PROTEIN (FAP) BINDING AGENTS AND USES THEREOF” (Mabimmune Diagnostics AG, priority 2016, published 2018)
